Measured values: the supplement of paper PMC10567573

B1: VENTX (parent)
chain: VFQHHQYLSPLERKRLAREMQLSE
B2: ZNF511 (parent)
chain: FDALDDYEHHYHTLHGNVCSFCKR

Variants of: B1
Experiment: protein stability index of a GFP-peptide fusion (GPS, HEK-293T) (PSI 1-6); higher = more stable
Conditions: c terminus: a fixed tail appended
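Further: lentivirally expressed fusions sorted by FACS into six bins by GFP to DsRed ratio, PSI derived from sequencing read proportions per bin multiplied by bin number.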

Variant	protein stability index
Q21M	2.06
E12D	2.39
E12W	1.8
L11W	2.84
L11D	2.97
L11M	2.65
M20V	2.29
M20R	3.25
M20F	2.04
H5S	2.63
H4F	1.69
H4Q	3.5
L16R	2.33
L16K	2.52
L16T	2.71
L16S	2.8
L8A	2.65
L8N	2.72
R15N	2.85
R13L	2.66
Q3I	2.07
Q3R	2.17
Q3F	1.66
E24L	2.07
V1G	2.09
R18E	2.8
S23M	2.4
S23P	2.78

Variants of: B2
Experiment: as above
Conditions: c terminus: a fixed tail appended

Variant	protein stability index
E8Y	2.79
E8W	2.69
T13I	3.19
T13D	3.91
T13M	3.5
T13H	4.17
T13V	3.77
T13Q	3.66
T13S	3.54
T13N	3.56
T13K	3.4
T13E	4.27
T13R	3.07
T13C	4.5
T13F	2.65
T13P	4.19
T13L	3.24
T13Y	2.92
T13W	2.78
T13G	4.15
T13A	3.82
H15A	3.86
H15W	3.3
H15G	3.92

Variant	protein stability index
H15V	3.73
H15C	3.89
H15P	3.3
H15I	3.55
H15Y	3.23
H15E	4.36
H15F	2.26
H15S	4.13
H15L	2.6
H15M	3.88
H15K	3.61
H15Q	3.96
H15R	3.83
H15D	3.97
H15N	3.96
H15T	4.48
H9R	4.1
H9G	4
H9E	3.71
H9W	2.67
H9F	3.03
H9C	4.26
H9T	3.47
H9D	3.69

Variant	protein stability index
H9V	3.18
H9Q	3.43
H9N	2.8
H9P	3.8
H9A	3.57
H9M	3.44
H9L	2.86
H9S	3.44
H9K	3.43
H9I	3.39
H9Y	2.65
Y11Q	4.93
Y11K	4.28
Y11S	4.14
Y11N	4.38
Y11L	4.05
Y11C	4.81
Y11E	4.55
Y11I	4.2
Y11W	2.34
Y11R	4.61
Y11G	4.01
Y11H	4.14
Y11A	4.39

Variant	protein stability index
Y11V	4.49
Y11M	4.45
Y11P	3.22
Y11D	4.64
Y11T	4.62
Y11F	3.19
R24L	3.35
R24Q	4.25
R24P	3.17
R24K	4.25
R24D	4.06
R24W	2.95
R24H	3.79
R24E	4.25
R24A	3.58
R24V	3.1
R24Y	2.88
R24C	3.58
R24S	3.8
R24F	2.13
R24I	3.08
R24N	4.02
R24M	3.6
R24T	3.84

Variant	protein stability index
R24G	4.01
F21A	4.3
F21I	4.22
F21E	4.18
F21S	3.91
F21G	4.35
F21Y	3.64
F21R	4.55
F21Q	4.56
F21M	3.71
F21N	4.15
F21T	4.28
F21K	4.2
F21L	4.01
F21H	4
F21V	4.45
F21D	4.62
F21W	4.32
F21P	3.49
F21C	3.59
C22A	3.11
C22D	3.29
C22S	3.31
C22G	2.37

Variant	protein stability index
C22M	2.85
C22F	2.2
C22W	1.96
C22H	2.6
C22K	3.02
C22E	3.2
C22P	3
C22I	2.26
C22Y	2.39
C22N	3.22
C22V	3.04
C22T	2.59
C22L	2.11
C22Q	3.15
C22R	2.73
V18P	4.49
V18H	2.93
V18C	3.66
V18N	3.89
V18Y	3.7
V18G	4.05
V18K	4.05
V18T	3.76
V18Q	4.18

Variant	protein stability index
V18D	4.12
V18E	4.36
V18F	2.97
V18R	3.88
V18S	3.82
V18I	3.53
V18M	3.68
V18W	2.8
V18A	3.7
V18L	3.83
G16A	3.72
G16E	3.75
G16C	3.42
G16H	3.5
G16S	3.37
G16M	3.15
G16D	3.87
G16V	2.96
G16K	3.22
G16Y	2.85
G16R	3.47
G16Q	3.3
G16T	3.47
G16L	2.98

Variant	protein stability index
G16N	3.72
G16W	2.66
G16I	3.15
G16P	3.46
G16F	2.9
H10F	2.92
H10W	3.04
H10Q	3.48
H10D	3.85
H10R	3.59
H10P	2.76
H10I	2.53
H10A	2.94
H10L	2.62
H10K	3.24
H10T	3.4
H10C	4.7
H10N	3.37
H10S	3.06
H10Y	3.22
H10E	3.74
H10M	2.65
H10G	3.73
H10V	2.46

Variant	protein stability index
K23A	3.47
K23S	3.6
K23H	3.07
K23D	3.45
K23Q	3.71
K23W	1.93
K23E	3.97
K23G	4.15
K23M	3.92
K23R	4.04
K23I	2.89
K23V	3.28
K23F	2.67
K23Y	2.59
K23T	3.25
K23C	3.25
K23L	3.03
K23N	3.96
K23P	3
L14P	4.71
L14D	4.33
L14R	3.63
L14S	4.08
L14Q	4.28

Variant	protein stability index
L14V	4.53
L14W	3.17
L14F	3.59
L14K	3.54
L14C	4.85
L14T	4.04
L14Y	3.81
L14G	4.22
L14I	3.92
L14E	4.48
L14A	3.98
L14M	3.99
L14N	4.18
L14H	4.24
H12L	2.71
H12G	3.58
H12Q	3.3
H12P	3.31
H12I	2.16
H12A	2.96
H12K	2.58
H12D	4.41
H12R	3.36
H12E	2.95

Variant	protein stability index
H12T	3.29
H12W	2.38
H12M	2.73
H12C	4.18
H12S	3.12
H12F	2.9
H12N	3.27
H12V	3.27
H12Y	2.48
C19Y	2.2
C19K	3.27
C19W	1.92
C19F	2.24
C19G	2.9
C19D	3.36
C19L	3.71
C19Q	2.92
C19V	2.41
C19T	3.41
C19P	3.1
C19N	3.13
C19E	3.21
C19I	2.66
C19A	3.11

Variant	protein stability index
C19H	3.19
C19M	2.63
C19R	2.75
C19S	3.04
N17D	4.23
N17I	3.25
N17Y	2.93
N17G	3.64
N17Q	2.24
N17R	3.9
N17K	3.22
N17H	3.64
N17L	2.29
N17C	2.5
N17V	3.67
N17A	3.55
N17F	3.1
N17S	3.98
N17W	2.6
N17P	3.16
N17M	3.54
N17E	3.96
N17T	3.5
S20G	2.7

Variant	protein stability index
S20D	2.75
S20E	4.44
S20K	3.76
S20Y	4.29
S20C	3.4
S20H	3.56
S20Q	3.85
S20P	3.54
S20L	3.35
S20T	3.81
S20V	3.64
S20N	3.74
S20A	3.81
S20W	2.63
S20F	3.67
S20I	3.83
S20R	3.27
S20M	4.04
